Reference: article PMC9102066, “Cloning and Functional Characterization of Dog OCT1 and OCT2: Another Step in Exploring Species Differences in Organic Cation Transporters” (International Journal of Molecular Sciences, 2022)

How the values were obtained:
[1] = substrate: CC(Cc1ccc(O)cc1)NCC(O)c1cc(O)cc(O)c1; test: cells, lysate or membranes named; conditions: HEK293, 2 min, Michaelis–Menten fit, pH 7.4
[2] = substrate: CCCC[N+]1(C)[C@@H]2C[C@@H](OC(=O)[C@H](CO)c3ccccc3)C[C@H]1[C@@H]1O[C@@H]12; test: Uptake in HEK293 cells stably overexpressing human OCT2; type: in vitro ADME; conditions: other: OCT2-mediated uptake, HEK293, 2 min, Michaelis–Menten fit; pH 7.4
Method: (§1) The total uptake is shown for the overexpressing and control cells (left hand side). OCT2-mediated uptake (right hand side) was calculated by subtracting the uptake of control cells (pcDNA5) from the uptake of OCT2-overexpressing cells. The means and standard errors of the means are shown for at least three independent experiments.
(§2) Cells were cultured in Dulbecco’s Modified Eagle’s Medium (DMEM) supplemented with 10% FBS, 100 U/mL penicillin, and 100 µg/mL streptomycin at 37 °C and 5% CO2. Cells were passaged twice a week.
(§3) At 48 h prior to the experiment, 6 × 10^5 cells were seeded per well in 12-well plates pre-coated with poly-D-lysine.
(§4) Cellular uptake experiments were performed at 37 °C and pH 7.4 using Hanks’ Buffered Salt Solution (HBSS) supplemented with 10 mM HEPES (referred to as HBSS+ in the following). Cells were washed with 1 mL pre-warmed (37 °C) HBSS+ and uptake was initiated by adding 400 µL of pre-warmed HBSS+ containing the substrate. Uptake was allowed for exactly 2 min and stopped by adding 2 mL ice-cold HBSS+. Cells were washed twice with 2 mL ice-cold HBSS+ then lysed with 80% acetonitrile supplemented with internal standard. The intracellularly accumulated substrate concentrations were measured using LC-MS/MS as described in the following and normalized to the amount of total protein in the samples as measured using the bicinchoninic acid assay [49].
(§5) Intracellular substrate concentrations were quantified using LC-MS/MS. […] The pellet was reconstituted with 200 µL 0.1% formic acid and between 5 and 10 µL was injected into the LC-MS/MS system (Table S2).
(§6) An API4000 QTRAP tandem mass spectrometer with ESI interface (AB SCIEX, Darmstadt, Germany) coupled to a Shimadzu Nexera X2 UHPLC system with LC 30AD pumps and SiL 30AC autosampler (Shimadzu, Duisburg, Germany) was used for analysis.
(§7) Intrinsic clearance CLint was calculated by dividing vmax by KM for each experiment.

[3] = substrate: O=C(O[C@H]1C[C@H]2CC[C@@H](C1)[N+]21CCCC1)C(O)(c1ccccc1)c1ccccc1; test: as above; type: in vitro ADME; conditions: other: OCT2-mediated uptake, HEK293, 2 min, Michaelis–Menten fit; pH 7.4
Method: as §1, §2, §3, §4, §5, §6, §7

[4] = substrate: CCCC[N+]1(C)[C@@H]2C[C@@H](OC(=O)[C@H](CO)c3ccccc3)C[C@H]1[C@@H]1O[C@@H]12; test: Uptake in HEK293 cells stably overexpressing mouse OCT1; type: in vitro ADME; conditions: other: OCT1-mediated uptake, HEK293, 2 min, Michaelis–Menten fit; pH 7.4
Method: (§8) The total uptake is shown for the overexpressing and control cells (left hand side). OCT1-mediated uptake (right hand side) was calculated by subtracting the uptake of control cells (pcDNA5) from the uptake of OCT1-overexpressing cells. The means and standard errors of the means are shown for at least three independent experiments.
as §3, §4, §5, §6
(§9) Intrinsic clearance CLint was calculated by dividing vmax by KM for each experiment. Kinetic parameters were compared between OCT1 orthologs using an ANOVA followed by Tukey’s honestly significant difference post hoc comparisons in SPSS Statistics version 28 (SPSS Inc., IBM, Chicago, IL, USA).

[5] = substrate: O=C(O[C@H]1C[C@H]2CC[C@@H](C1)[N+]21CCCC1)C(O)(c1ccccc1)c1ccccc1; test: as above; type: in vitro ADME; conditions: other: OCT1-mediated uptake, HEK293, 2 min, Michaelis–Menten fit; pH 7.4
Method: as §8, §3, §4, §5, §6, §9

[6] = substrate: CN(C)C(=N)N=C(N)N; test: as above; type: in vitro ADME; conditions: other: OCT1-mediated uptake, HEK293, 2 min, Michaelis–Menten fit; pH 7.4
Method: as §8, §3, §4, §5, §6, §9

Protein | Km ([1]; other: OCT2-mediated uptake) [µM] | Km [2] [µM] | Vmax [2] [µmol/min/mg] | Vmax/Km [2] [µL/min/mg] | Km [3] [µM] | Vmax [3] [µmol/min/mg] | Vmax/Km [3] [µL/min/mg] | Km [4] [µM] | Vmax [4] [µmol/min/mg] | Vmax/Km [4] [µL/min/mg] | Km [5] [µM] | Vmax [5] [µmol/min/mg] | Vmax/Km [5] [µL/min/mg] | Km [6] [µM] | Vmax [6] [µmol/min/mg] | Vmax/Km [6] [µL/min/mg] | Km ([1]; other: OCT1-mediated uptake) [µM]
human OCT2 (Homo sapiens) (protein, expressed in transfected cells; host or cells: HEK293 (Flp-In system)) MPTTVDDVLEHGGEFHFFQKQMFFLLALLSATFAPIYVGIVFLGFTPDHRCRSPGVAELSLRCGWSPAEELNYTVPGPGPAGEASPRQCRRYEVDWNQSTFDCVDPLASLDTNRSRLPLGPCRDGWVYETPGSSIVTEFNLVCANSWMLDLFQSSVNVGFFIGSMSIGYIADRFGRKLCLLTTVLINAAAGVLMAISPTYTWMLIFRLIQGLVSKAGWLIGYILITEFVGRRYRRTVGIFYQVAYTVGLLVLAGVAYALPHWRWLQFTVSLPNFFFLLYYWCIPESPRWLISQNKNAEAMRIIKHIAKKNGKSLPASLQRLRLEEETGKKLNPSFLDLVRTPQIRKHTMILMYNWFTSSVLYQGLIMHMGLAGDNIYLDFFYSALVEFPAAFMIILTIDRIGRRYPWAASNMVAGAACLASVFIPGDLQWLKIIISCLGRMGITMAYEIVCLVNAELYPTFIRNLGVHICSSMCDIGGIITPFLVYRLTNIWLELPLMVFGVLGLVAGGLVLLLPETKGKALPETIEEAENMQRPRKNKEKMIYLQVQKLDIPLN | 8.81 ± 0.55 | 7.62 ± 0.85 | 0.000616 | 81.6 | 0.49 ± 0.15 | 0.000119 | 278 |  |  |  |  |  |  |  |  |  | 
mouse OCT1 (Mus musculus) (protein, expressed in transfected cells; host or cells: HEK293 (Flp-In system)) MPTVDDVLEHVGEFGWFQKQAFLLLCLISASLAPIYVGIVFLGFTPDHHCRSPGVAELSQRCGWSPAEELNYTVPGLGSAGEASFLSQCMKYEVDWNQSTLDCVDPLSSLAANRSHLPLSPCEHGWVYDTPGSSIVTEFNLVCGDAWKVDLFQSCVNLGFFLGSLVVGYIADRFGRKLCLLVTTLVTSLSGVLTAVAPDYTSMLLFRLLQGMVSKGSWVSGYTLITEFVGSGYRRTTAILYQVAFTVGLVGLAGVAYAIPDWRWLQLAVSLPTFLFLLYYWFVPESPRWLLSQKRTTQAVRIMEQIAQKNRKVPPADLKMMCLEEDASERRSPSFADLFRTPSLRKHTLILMYLWFSCAVLYQGLIMHVGATGANLYLDFFYSSLVEFPAAFIILVTIDRIGRIYPIAASNLVAGAACLLMIFIPHELHWLNVTLACLGRMGATIVLQMVCLVNAELYPTFIRNLGMMVCSALCDLGGIFTPFMVFRLMEVWQALPLILFGVLGLSAGAVTLLLPETKGVALPETIEEAENLGRRKSKAKENTIYLQVQTGKSPHT |  |  |  |  |  |  |  | 6.60 ± 1.13 | 0.000778 | 131 | 1.92 ± 0.85 | 0.000255 | 180 | 298 ± 46.9 | 0.0109 ± 0.00125 | 38.7 | 10.7 ± 1.09
